Laboratory results: article PMC3070748

Biological target: Gemin7 BiFC construct (UniProt Q9H840)
Test: split reporter

UniProt Q9H840, sequence (Q9H840 whole entry): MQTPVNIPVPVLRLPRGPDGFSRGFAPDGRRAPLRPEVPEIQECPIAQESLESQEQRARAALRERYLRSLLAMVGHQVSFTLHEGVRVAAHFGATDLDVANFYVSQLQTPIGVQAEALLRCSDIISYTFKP

percent of BiFC-positive cells: 56%
Substance: murine Unrip fused to a Venus fragment (BiFC construct) (from UniProt Q9Z1Z2 1-350) (natural protein)
